Measurements as given in patent US20150259425A1 (AbbVie / Abbott, published 2015).

Assays:
recombinant human CD16a [1] = target: T1, recombinant human CD16a (human, UniProt P08637 17-208, limits assumed); test: AlphaScreen, recombinant human CD16a; high glycine batch against control batch
T1 construct: Recombinant human CD16a solution used in the AlphaScreen assay; also called CD16a receptor; human CD16a receptor
Experimental: (§1) A CD16a binding assay was performed using AlphaScreen (PerkinElmer) method to assess the binding potency of the antibody Fc region of four different antibodies to human CD16a receptor. The antibody solution was first mixed with a recombinant human CD16a solution and assay buffer, and then Alphascreen donor beads and antibody acceptor beads were added. The mixture was incubated in a light protected location for 4 hours at room temperature and the fluorescent signal was detected using a plate reader with laser excitation at 680 nm and light emission 520-620 nm. The binding potency relative to the antibody reference cultured in a basal medium without excess glycine was reported.

recombinant human CD16a [2] = target: T1, recombinant human CD16a; test: AlphaScreen, recombinant human CD16a in solution; batch: 2 L control medium
Experimental: as §1

recombinant human CD16a [3] = target: T1, recombinant human CD16a; test: AlphaScreen, recombinant human CD16a in solution; batch: 250 L control medium
Experimental: as §1

recombinant human CD16a [4] = target: T1, recombinant human CD16a; test: AlphaScreen, recombinant human CD16a in solution; batch: 2 L with extra glycine
Experimental: as §1

recombinant human CD16a [5] = target: T1, recombinant human CD16a; test: AlphaScreen, recombinant human CD16a in solution; batch: 100 L with extra glycine
Experimental: as §1

recombinant human CD16a [6] = target: T1, recombinant human CD16a; test: AlphaScreen, recombinant human CD16a in solution; batch: 1 kL control (GMP)
Experimental: as §1

recombinant human CD16a [7] = target: T1, recombinant human CD16a; test: AlphaScreen, recombinant human CD16a in solution; batch: 1 kL control medium
Experimental: as §1

recombinant human CD16a [8] = target: T1, recombinant human CD16a; test: AlphaScreen, recombinant human CD16a in solution; batch: 100 L control medium
Experimental: as §1

recombinant human CD16a [9] = target: T1, recombinant human CD16a; test: AlphaScreen, recombinant human CD16a in solution; batch: 50 L with extra glycine
Experimental: as §1

recombinant human CD16a [10] = target: T1, recombinant human CD16a; test: AlphaScreen, recombinant human CD16a in solution; dose response study, batch: 2 L control (2 mM glycine)
Experimental: as §1

recombinant human CD16a [11] = target: T1, recombinant human CD16a; test: AlphaScreen, recombinant human CD16a in solution; dose response study, batch: 2 L with extra 5 mM glycine
Experimental: as §1

recombinant human CD16a [12] = target: T1, recombinant human CD16a; test: AlphaScreen, recombinant human CD16a in solution; dose response study, batch: 2 L with extra 15 mM glycine
Experimental: as §1

recombinant human CD16a [13] = target: T1, recombinant human CD16a; test: AlphaScreen, recombinant human CD16a in solution; dose response study, batch: 2 L with extra 30 mM glycine
Experimental: as §1

recombinant human CD16a [14] = target: T1, recombinant human CD16a; test: AlphaScreen, recombinant human CD16a in solution; batch: 1 kL with extra glycine
Experimental: as §1

B1: PDL241 (antibody, human IgG1, kappa)
heavy: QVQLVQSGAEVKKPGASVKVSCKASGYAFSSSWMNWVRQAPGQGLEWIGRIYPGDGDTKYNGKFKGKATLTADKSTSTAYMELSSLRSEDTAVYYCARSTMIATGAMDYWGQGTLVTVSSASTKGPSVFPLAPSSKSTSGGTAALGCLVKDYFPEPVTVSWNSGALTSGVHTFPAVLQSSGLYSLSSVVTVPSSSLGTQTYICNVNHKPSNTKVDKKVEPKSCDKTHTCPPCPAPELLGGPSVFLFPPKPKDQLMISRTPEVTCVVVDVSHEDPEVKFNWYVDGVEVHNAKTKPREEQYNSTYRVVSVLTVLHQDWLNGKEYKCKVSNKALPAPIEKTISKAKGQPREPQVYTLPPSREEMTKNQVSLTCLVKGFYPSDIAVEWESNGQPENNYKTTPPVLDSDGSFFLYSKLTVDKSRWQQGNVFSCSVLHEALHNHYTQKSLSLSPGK
light: DIQMTQSPSSLSASVGDRVTITCKASQDVSTAVAWYQQKPGKAPKLLIYSASYRYTGVPDRFTGSGSGTDFTLTISSLQPEDFATYYCQQHYSTPPYTFGGGTKVEIKRTVAAPSVFIFPPSDEQLKSGTASVVCLLNNFYPREAKVQWKVDNALQSGNSQESVTEQDSKDSTYSLSSTLTLSKADYEKHKVYACEVTHQGLSSPVTKSFNRGEC
modifications: N-linked glycans; the share of non-fucosylated glycoforms differs between batches
notes: Humanized IgG1 to CS1, made in NS0 cells; Batches differ only in glycoforms
In the case of B1, the “increase in binding affinity relative to the control antibody (basal medium, 2 mM glycine)” value (recombinant human CD16a [1]) is reported as 40 % increase, the “CD16a Binding Relative to Reference” value (recombinant human CD16a [2]) is reported as 147% and the “CD16a Binding Relative to Reference” value (recombinant human CD16a [3]) is reported as 100%. For the same binder, the “CD16a Binding Relative to Reference” value (recombinant human CD16a [4]) was 277% and the “CD16a Binding Relative to Reference” value (recombinant human CD16a [5]) was 137%.

B2: enavatuzumab (antibody, human IgG1, kappa)
heavy: not shown
light: DIQMTQSPSSLSASVGDRVTITCRASQSVSTSSYSYMHWYQQKPGKAPKLLIKYASNLESGVPSRFSGSGSGTDFTLTISSLQPEDFATYYCQHSWEIPYTFGGGTKVEIKRTVAAPSVFIFPPSDEQLKSGTASVVCLLNNFYPREAKVQWKVDNALQSGNSQESVTEQDSKDSTYSLSSTLTLSKADYEKHKVYACEVTHQGLSSPVTKSFNRGEC
modifications: N-linked glycans; the share of non-fucosylated glycoforms differs between batches
notes: Humanized IgG1 to TweakR, made in NS0 cells; Batches differ only in glycoforms; also called PDL192
For B2, the “increase in binding affinity relative to the control antibody (basal medium, 2 mM glycine)” value (recombinant human CD16a [1]) was 40 % increase, the “CD16a Binding Relative to Reference” value (recombinant human CD16a [6]) was 65% and the “CD16a Binding Relative to Reference” value (recombinant human CD16a [7]) was 96%. For the same binder, the “CD16a Binding Relative to Reference” value (recombinant human CD16a [8]) was 110%, the “CD16a Binding Relative to Reference” value (recombinant human CD16a [9]) was 136% and the “CD16a Binding Relative to Reference” value (recombinant human CD16a [10]) was 130 relative to Reference (no unit printed; percent as in Table 15). The “CD16a Binding Relative to Reference” value (recombinant human CD16a [11]) was 146 relative to Reference (no unit printed; percent as in Table 15), the “CD16a Binding Relative to Reference” value (recombinant human CD16a [12]) was 151 relative to Reference (no unit printed; percent as in Table 15) and the “CD16a Binding Relative to Reference” value (recombinant human CD16a [13]) was 144 relative to Reference (no unit printed; percent as in Table 15).

B3: daclizumab (antibody, human IgG1, kappa)
heavy: not shown
light: DIQMTQSPSTLSASVGDRVTITCSASSSISYMHWYQQKPGKAPKLLIYTTSNLASGVPARFSGSGSGTEFTLTISSLQPDDFATYYCHQRSTYPLTFGSGTKVEVKRTVAAPSVFIFPPSDEQLKSGTASVVCLLNNFYPREAKVQWKVDNALQSGNSQESVTEQDSKDSTYSLSSTLTLSKADYEKHKVYACEVTHQGLSSPVTKSFNR
modifications: N-linked glycans; the share of non-fucosylated glycoforms differs between batches
notes: Humanized IgG1 to CD25, made in NS0 cells; the entries may be incomplete; also called DAC HYP
For B3, the “increase in binding affinity relative to the control antibody (basal medium, 2 mM glycine)” value (recombinant human CD16a [1]) was 40 % increase, the “CD16a Binding Relative to Reference” value (recombinant human CD16a [2]) was 69% and the “CD16a Binding Relative to Reference” value (recombinant human CD16a [4]) was 137%.

B4: elotuzumab (antibody, human IgG1, kappa)
heavy: not shown
light: DIQMTQSPSSLSASVGDRVTITCKASQDVGIAVAWYQQKPGKVPKLLIYWASTRHTGVPDRFSGSGSGTDFTLTISSLQPEDVATYYCQQYSSYPYTFGQGTKVEIKRTVAAPSVFIFPPSDEQLKSGTASVVCLLNNFYPREAKVQWKVDNALQSGNSQESVTEQDSKDSTYSLSSTLTLSKADYEKHKVYACEVTHQGLSSPVTKSFNRGEC
modifications: N-linked glycans; the share of non-fucosylated glycoforms differs between batches (control vs high glycine medium)
notes: IgG1 made in NS0 cells; also called HuLuc63; HuLuc 63
In the case of B4, the “increase in binding affinity relative to the control antibody (basal medium, 2 mM glycine)” value (recombinant human CD16a [1]) is reported as 40 % increase, the “CD16a Binding Relative to Reference” value (recombinant human CD16a [7]) is reported as 100% and the “CD16a Binding Relative to Reference” value (recombinant human CD16a [14]) is reported as 146%. The “CD16a Binding Relative to Reference” value (recombinant human CD16a [5]) was 128%.
